Changes are numbered by the printed parent chain.
T1: human MerTK extracellular domain (ECD), recombinant (human, UniProt Q12866 21-505)
T1 construct: also called huMerTK; not shown: polyHis tag or TEVS/Thrombin/murine IgG2a Fc tag
T1 sequence: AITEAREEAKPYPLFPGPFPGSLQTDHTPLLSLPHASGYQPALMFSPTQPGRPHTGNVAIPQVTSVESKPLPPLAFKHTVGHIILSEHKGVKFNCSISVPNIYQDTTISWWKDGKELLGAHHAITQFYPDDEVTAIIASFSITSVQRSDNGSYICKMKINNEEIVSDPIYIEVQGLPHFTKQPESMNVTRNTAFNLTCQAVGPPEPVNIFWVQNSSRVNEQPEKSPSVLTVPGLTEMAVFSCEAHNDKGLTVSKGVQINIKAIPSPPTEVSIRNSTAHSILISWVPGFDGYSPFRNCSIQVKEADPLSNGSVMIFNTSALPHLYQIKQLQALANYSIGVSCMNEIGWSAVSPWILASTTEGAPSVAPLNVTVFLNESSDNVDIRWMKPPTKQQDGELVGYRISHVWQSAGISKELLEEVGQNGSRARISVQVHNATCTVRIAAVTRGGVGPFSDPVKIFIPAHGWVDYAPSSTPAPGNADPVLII

T2: cyno MerTK extracellular domain (ECD), recombinant (cynomolgus monkey, UniProt Q12866 21-505 (human entry))
T2 construct: also called cynomolgus MerTK; not shown: polyHis tag or TEVS/Thrombin/murine IgG2a Fc tag
T2 chain: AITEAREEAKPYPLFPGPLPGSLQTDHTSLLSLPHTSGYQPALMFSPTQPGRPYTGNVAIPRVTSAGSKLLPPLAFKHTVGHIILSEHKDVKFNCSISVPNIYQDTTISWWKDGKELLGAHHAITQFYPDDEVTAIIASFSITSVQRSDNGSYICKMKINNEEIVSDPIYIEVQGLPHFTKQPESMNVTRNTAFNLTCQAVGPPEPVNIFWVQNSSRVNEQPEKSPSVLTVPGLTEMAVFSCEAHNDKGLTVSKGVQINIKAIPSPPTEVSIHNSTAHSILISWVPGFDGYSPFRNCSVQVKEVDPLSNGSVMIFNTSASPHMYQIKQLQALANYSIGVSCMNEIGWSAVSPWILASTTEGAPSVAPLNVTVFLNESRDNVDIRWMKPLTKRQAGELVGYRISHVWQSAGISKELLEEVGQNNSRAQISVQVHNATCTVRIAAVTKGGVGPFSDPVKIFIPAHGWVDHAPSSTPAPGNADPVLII

T3: murine MerTK extracellular domain (ECD), recombinant (mouse, UniProt Q60805 19-497)
T3 construct: also called moMerTK; mouse MerTK; not shown: polyHis tag or TEVS/Thrombin/murine IgG2a Fc tag
T3 sequence: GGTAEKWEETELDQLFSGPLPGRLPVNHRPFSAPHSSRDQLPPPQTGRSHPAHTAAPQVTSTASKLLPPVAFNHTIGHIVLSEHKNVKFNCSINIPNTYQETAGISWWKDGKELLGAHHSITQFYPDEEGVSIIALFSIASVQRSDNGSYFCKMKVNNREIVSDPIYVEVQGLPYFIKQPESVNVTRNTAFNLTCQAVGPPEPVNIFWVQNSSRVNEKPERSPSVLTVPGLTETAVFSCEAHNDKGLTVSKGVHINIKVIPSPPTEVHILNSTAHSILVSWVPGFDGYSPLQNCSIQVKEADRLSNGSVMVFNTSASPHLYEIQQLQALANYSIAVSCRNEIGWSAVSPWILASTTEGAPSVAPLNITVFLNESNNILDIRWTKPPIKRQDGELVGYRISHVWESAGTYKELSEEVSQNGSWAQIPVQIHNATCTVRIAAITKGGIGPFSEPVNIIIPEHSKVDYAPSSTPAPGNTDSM

B1: MTK-36 (antibody, human IgG1, V domains shown)
VH: QVTLKESGPGILQPSQTLSLTCSFSGFSLSTFGMGVGWIRQPSGKGLEWLAHIWWYDDKYYEPALKSRLTISKDSSKNQVFLKIANVDTADTATYYCARIYYGTSYRYFDVWGTGTTVTVSS
VL: QIVLSQSPAILSAFPGEKVTMTCRATSSVRYMHWYQQKPGSSPKPWIYATYNLTSGVPARFSGSGSGTSYSLTISRVEAEDAATYYCHQWSSNPYTFGGGTKLEIK
B2: MTK-14 (antibody, human IgG1, V domains shown)
VH: QIQLVQSGPELKKPGETVKISCKASGYTFTNYGMNWVKQAPGKDLQWMGWINTYTGEPTYADDFTGRFAFSLETSASTAYLQINNLKNEDTATYFCAKGGHYAWFAYWGQGTLVTVSA
VL: B1 VL with F14S, A25S, T26S, R30S, Y51S, T54A, A59G, H88Q, S91G, Y95R
B3: MTK-08 (antibody, human IgG1, V domains shown)
VH: QIQLVQSGPELKKPGETVKISCKASGYTFTNYGMNWVKQAPGKGLKWMGWINTYTGEPTYADDFKGRFAFSLETSASTAYLQINNLKNEDTATYFCAREVRYWYFDVWGAGTTVTVSS
VL: B1 VL with F14S, R30S, Y35F, Y51S, T54A, T84A, H88Q, Q89H, S92G, Y95R
B4: MTK-02 (antibody, human IgG1, V domains shown)
VH: B3 VH with K13Q, N31D, M34V, T55S, D62G, T74S, Y80F, T91M, E99R, T113S
VL: QIVLSQSPAILSASPGERVTMTCRANSSVSYMHWYQQKPGSSPKPWIYATSNLASGVPARFSASGSGTSYSLTVSRVEAEDAATYYCQQWGSNPFTFGSGTKLEIK

The binders below were run against T1, human MerTK extracellular domain (ECD), … (assay: SPR, Carterra LSA, antibody immobilised).
Outline: (§1)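 Anti-MerTK antibodies diluted to 10 μg/ml in 10 mM Acetate, pH 4.25 were amine-coupled in a 96-spot array onto an HC200M chip activated with MES/sulfo-NHS/EDC, then blocked with 1M Ethanolamine pH 8.5. On a Carterra LSA, recombinant MerTK extracellular domain was injected at 33.3, 100, and 300 nM in HBS-TE with 0.5 mg/ml BSA, lowest to highest without regeneration. KD came from fitted k-on and k-off.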
For B1, the Kd was 6.4 nM. Work on B2 yielded a Kd of 45 nM. B3 was tested, and the Kd was 37 nM. B4 gave a Kd of 22 nM.

Biological target: T2, cyno MerTK extracellular domain (ECD), …
Experiment: SPR, Carterra LSA, antibody immobilised
Outline: as §1
B1 showed a Kd of 5.9 nM. B2 was tested, and the Kd was 53 nM. B3 gave a Kd of 42 nM. In the case of B4, the Kd is reported as 24 nM.

The binders below were run against T3, murine MerTK extracellular domain … (assay: SPR, Carterra LSA, antibody immobilised).
Outline: as §1
B1: no binding (tested: 300 nM). B2: no binding (tested: 300 nM). B3: no binding (tested: 300 nM). B4: no binding (tested: 300 nM).

From patent publication US20210261685A1 (Alector, published 2021)
